Results from ChEMBL document CHEMBL1123043, “Effects of charge, volume, and surface on binding of inhibitor and substrate moieties to acetylcholinesterase” (J Med Chem, 1985).

Assays:
[1] = substrate: CN(C)C
Description: (§1) Compound was evaluated for reversible inhibition of hydrolysis acetylcholine by acetylcholinesterase and represented as Km(app) apparent binding constant

[2] = substrate: CC(=O)CCC[N+](C)(C)[O-]
Description: as §1

[3] = substrate: CC(C)(C)CCO
Description: as §1

[4] = substrate: C[S+](C)CCO
Description: as §1

[5] = substrate: CS(=O)(=O)CCO
Description: as §1

[6] = substrate: C[Si](C)(C)CCO
Description: as §1

[7] = substrate: CC(=O)OCCS(C)(=O)=O
Description: as §1

[8] = substrate: C[N+](C)(C)CCO
Description: as §1

[9] = substrate: CSCCO
Description: as §1

[10] = substrate: CCCCO
Description: as §1
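Also: apparent binding constant Km(app) for reversible inhibition of acetylcholine hydrolysis catalysed by acetylcholinesterase.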

B1: Choline O-acetyltransferase (Rattus norvegicus), P32738 (protein)
chain: MPILEKAPQKMPVKASSWEELDLPKLPVPPLQQTLATYLQCMQHLVPEEQFRKSQAIVKRFGAPGGLGETLQEKLLERQEKTANWVSEYWLNDMYLNNRLALPVNSSPAVIFARQHFQDTNDQLRFAACLISGVLSYKTLLDSHSLPTDWAKGQLSGQPLCMKQYYRLFSSYRLPGHTQDTLVAQKSSIMPEPEHVIVACCNQFFVLDVVINFRRLSEGDLFTQLRKIVKMASNEDERLPPIGLLTSDGRSEWAKARTVLLKDSTNRDSLDMIERCICLVCLDGPGTGELSDTHRALQLLHGGGCSLNGANRWYDKSLQFVVGRDGTCGVVCEHSPFDGIVLVQCTEHLLKHMMTSNKKLVRADSVSELPAPRRLRLKCSPETQGHLASSAEKLQRIVKNLDFIVYKFDNYGKTFIKKQKYSPDGFIQVALQLAYYRLYQRLVPTYESASIRRFQEGRVDNIRSATPEALAFVQAMTDHKAAMPASEKLQLLQTAMQAHKQYTVMAITGMAIDNHLLALRELARDLCKEPPEMFMDETYLMSNRFVLSTSQVPTTMEMFCCYGPVVPNGNGACYNPQPEAITFCISSFHSCKETSSVEFAEAVGASLVDMRDLCSSRQPADSKPPAPKEKARGPSQAKQS
Protein B1 has a Km [1] of 18 mM, a Km [2] of 18 mM and a Km [3] of 5.3 mM. For the same protein, the Km [4] was 0.33 mM, the Km [5] was 6.2 mM and the Km [6] was 3.5 mM. The Km [7] was 6.2 mM, the Km [8] was 0.33 mM and the Km [9] was 15 mM. It also gave a Km [10] of 13 mM.
